Test results published in patent US20210388096A1.

Molecular target: human Fn14 on cells (NFkB/HEK293 reporter cells, A375 cells) (human) (UniProt Q9NP84)
Test: cell-based or functional assay

human Fn14 on cells (NFkB/HEK293 reporter cells, A375 cells) (human), sequence (Q9NP84 28-129): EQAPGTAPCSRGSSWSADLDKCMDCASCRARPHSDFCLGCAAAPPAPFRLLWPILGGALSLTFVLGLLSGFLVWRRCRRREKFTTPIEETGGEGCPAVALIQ

IC50 (ng/mL), inhibition of Tweak-induced NFkB activation (luciferase reporter, NFkB/HEK293 cells), geometric mean of three trials: 115 ng/mL
B1: mouse anti-human Fn14 antibody CRCBT-06-002 (antibody, from another filing, V domains shown)
VH: EVKLQQSGGGLVQPGGSMKLSCVASGFTFSYYWMNWVRQSPEQGLEWIAEIRLQSNDYPTHYAESVKGRFTISRDDSKNSVYLQMNNLRPEDTGIYYCACRYADYFDHWGQGTTLTVSS
VL: DTVLTQSPASLVVSLGQRATISCRASQSVSTSDYSYIHWYQQKPGQPPKFLIKYASNRDSGVPARFSGSGSGTDFTLNIHPVEEDDTAIYYCQHSWEIPPTFGAGTKLELQR
